The supplement of paper PMC9112550, “Optimization of the antimicrobial peptide Bac7 by deep mutational scanning” (BMC Biology, 2022)

tested on: Escherichia coli TOP10; assay: shrunken log2 fold change of peptide-encoding DNA abundance (4.5 h post-induction vs induction); higher = less antimicrobial activity (less host growth inhibition); conditions: time post-induction: 4.5 h; library: site-saturation at positions 5, 18, 19, 20
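Further: peptides expressed intracellularly from a pBAD plasmid library in pooled LB shake-flask culture, induced with 0.3% L-arabinose, DNA abundance read by NGS, three biological replicates, DESeq2 with apeglm shrinkage.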

| Sequence | shrunken log2 fold change |
| --- | --- |
| RRIRCRPPRLPRPRPRPGIHPRP | -0.405 |
| RRIRDRPPRLPRPRPRPHGGPRP | 0.0317 |
| RRIRWRPPRLPRPRPRPKYNPRP | -0.558 |
| RRIRLRPPRLPRPRPRPHYEPRP | -0.762 |
| RRIRQRPPRLPRPRPRPGWRPRP | 2.71 |
| RRIRMRPPRLPRPRPRPPAVPRP | 1.44 |
| RRIRTRPPRLPRPRPRPLRFPRP | 0.742 |
| RRIRTRPPRLPRPRPRPCRNPRP | -0.533 |
| RRIRGRPPRLPRPRPRPMHLPRP | 0.186 |
| RRIRVRPPRLPRPRPRPFDAPRP | 0.0132 |
| RRIRVRPPRLPRPRPRPYWKPRP | -0.074 |
| RRIRERPPRLPRPRPRPRIFPRP | -0.0907 |
| RRIRHRPPRLPRPRPRPANFPRP | -0.0325 |
| RRIRERPPRLPRPRPRPLPYPRP | -0.345 |
| RRIRHRPPRLPRPRPRPIFQPRP | 0.153 |
| RRIRFRPPRLPRPRPRPQDKPRP | -0.308 |
| RRIRERPPRLPRPRPRPPGRPRP | 0.146 |
| RRIRPRPPRLPRPRPRPFWAPRP | 0.0614 |
| RRIRCRPPRLPRPRPRPLSWPRP | 0.513 |
| RRIRTRPPRLPRPRPRPDWRPRP | 0.0352 |
| RRIRVRPPRLPRPRPRPDETPRP | 0.126 |
| RRIRFRPPRLPRPRPRPALKPRP | -0.0754 |

| Sequence | shrunken log2 fold change |
| --- | --- |
| RRIRWRPPRLPRPRPRPCEMPRP | 0.0732 |
| RRIRRRPPRLPRPRPRPIKMPRP | -0.0923 |
| RRIRPRPPRLPRPRPRPRNHPRP | -0.196 |
| RRIRPRPPRLPRPRPRPRHWPRP | 0.423 |
| RRIRTRPPRLPRPRPRPCPGPRP | -0.232 |
| RRIRMRPPRLPRPRPRPACWPRP | 1.06 |
| RRIRCRPPRLPRPRPRPIRHPRP | -0.146 |
| RRIRRRPPRLPRPRPRPQAMPRP | 0.0414 |
| RRIRPRPPRLPRPRPRPWEWPRP | 0.0238 |
| RRIRHRPPRLPRPRPRPGCHPRP | -0.242 |
| RRIRIRPPRLPRPRPRPSSGPRP | -0.219 |
| RRIRLRPPRLPRPRPRPCNNPRP | -0.0778 |
| RRIRHRPPRLPRPRPRPENFPRP | -0.0249 |
| RRIRSRPPRLPRPRPRPGSFPRP | 0.209 |
| RRIRKRPPRLPRPRPRPNVEPRP | 0.192 |
| RRIRFRPPRLPRPRPRPISMPRP | -0.137 |
| RRIRERPPRLPRPRPRPMMWPRP | 0.3 |
| RRIRHRPPRLPRPRPRPIINPRP | -0.324 |
| RRIRSRPPRLPRPRPRPVESPRP | -0.0897 |
| RRIRDRPPRLPRPRPRPYDDPRP | -0.00157 |
| RRIRIRPPRLPRPRPRPQCEPRP | -0.0436 |
| RRIRSRPPRLPRPRPRPFPDPRP | -0.319 |

| Sequence | shrunken log2 fold change |
| --- | --- |
| RRIRCRPPRLPRPRPRPHVHPRP | -0.245 |
| RRIRYRPPRLPRPRPRPMIFPRP | -1.43 |
| RRIRLRPPRLPRPRPRPRARPRP | 0.619 |
| RRIRRRPPRLPRPRPRPYHFPRP | -0.116 |
| RRIRKRPPRLPRPRPRPAVRPRP | 0.951 |
| RRIRGRPPRLPRPRPRPGMVPRP | 1.46 |
| RRIRFRPPRLPRPRPRPRYTPRP | -0.15 |
| RRIRKRPPRLPRPRPRPIVSPRP | -0.0354 |
| RRIRHRPPRLPRPRPRPDTTPRP | -0.226 |
| RRIRVRPPRLPRPRPRPPLIPRP | 1.02 |
| RRIRARPPRLPRPRPRPLELPRP | 0.386 |
| RRIRWRPPRLPRPRPRPVPHPRP | 0.271 |
| RRIRDRPPRLPRPRPRPQNCPRP | 0.00875 |
| RRIRCRPPRLPRPRPRPHCQPRP | 0.0911 |
| RRIRTRPPRLPRPRPRPPRWPRP | 0.689 |
| RRIRMRPPRLPRPRPRPAAYPRP | 0.206 |
| RRIRTRPPRLPRPRPRPRFFPRP | 0.0438 |
| RRIRIRPPRLPRPRPRPAYRPRP | -0.611 |
| RRIRRRPPRLPRPRPRPVMKPRP | -0.025 |
| RRIRCRPPRLPRPRPRPKVRPRP | 0.195 |
| RRIRSRPPRLPRPRPRPAIPPRP | -0.139 |
| RRIRPRPPRLPRPRPRPTVHPRP | -0.0233 |

| Sequence | shrunken log2 fold change |
| --- | --- |
| RRIRWRPPRLPRPRPRPFPKPRP | 0.0146 |
| RRIRPRPPRLPRPRPRPFVQPRP | -0.0832 |
| RRIRHRPPRLPRPRPRPYSEPRP | -0.29 |
| RRIRYRPPRLPRPRPRPPCNPRP | -0.0594 |
| RRIRHRPPRLPRPRPRPQYQPRP | -0.496 |
| RRIRARPPRLPRPRPRPDDNPRP | 0.248 |
| RRIRVRPPRLPRPRPRPGFFPRP | 0.0758 |
| RRIRRRPPRLPRPRPRPTVHPRP | 0.231 |
| RRIRYRPPRLPRPRPRPTPYPRP | -0.847 |
| RRIRHRPPRLPRPRPRPVEIPRP | -0.0173 |
| RRIRPRPPRLPRPRPRPHMDPRP | -0.374 |
| RRIRTRPPRLPRPRPRPNQEPRP | 0.0313 |
| RRIRGRPPRLPRPRPRPVSRPRP | 0.491 |
| RRIRERPPRLPRPRPRPHRVPRP | 0.0121 |
| RRIRMRPPRLPRPRPRPQTYPRP | 0.144 |
| RRIRNRPPRLPRPRPRPMDAPRP | 0.101 |
| RRIRTRPPRLPRPRPRPIINPRP | -0.0706 |
| RRIRYRPPRLPRPRPRPPDYPRP | -2.1 |
| RRIRIRPPRLPRPRPRPDTPPRP | 0.0459 |
| RRIRLRPPRLPRPRPRPDDTPRP | -0.0691 |
| RRIRKRPPRLPRPRPRPRLVPRP | 0.338 |
| RRIRMRPPRLPRPRPRPFMSPRP | 0.0642 |

| Sequence | shrunken log2 fold change |
| --- | --- |
| RRIRNRPPRLPRPRPRPALWPRP | -0.15 |
| RRIRKRPPRLPRPRPRPVICPRP | 0.115 |
| RRIRDRPPRLPRPRPRPYQTPRP | -0.0929 |
| RRIRQRPPRLPRPRPRPDGKPRP | 0.0269 |
| RRIRQRPPRLPRPRPRPSEQPRP | 0.155 |
| RRIRPRPPRLPRPRPRPDIIPRP | 0.00942 |
| RRIRLRPPRLPRPRPRPRGQPRP | 0.533 |
| RRIRWRPPRLPRPRPRPRGMPRP | 0.313 |
| RRIRGRPPRLPRPRPRPSGYPRP | -0.167 |
| RRIRSRPPRLPRPRPRPDQTPRP | 0.0249 |
| RRIRCRPPRLPRPRPRPGDGPRP | 0.646 |
| RRIRRRPPRLPRPRPRPHNLPRP | -0.176 |
| RRIRPRPPRLPRPRPRPCGIPRP | -0.0938 |
| RRIRWRPPRLPRPRPRPMIVPRP | 2.28 |
| RRIRERPPRLPRPRPRPAESPRP | -0.049 |
| RRIRLRPPRLPRPRPRPYIIPRP | -0.217 |
| RRIRLRPPRLPRPRPRPIVIPRP | -1.37 |
| RRIRVRPPRLPRPRPRPCARPRP | -0.0405 |
| RRIRVRPPRLPRPRPRPAKFPRP | 0.42 |
| RRIRGRPPRLPRPRPRPFKDPRP | -0.681 |
| RRIRIRPPRLPRPRPRPVKEPRP | -0.0496 |
